The values below come from patent US20210155689A1 (SHANGHAI PHARMAEXPLORER, published 2021).

Residue numbers refer to the chain shown, from its start.

Assay [1] concerns the target T1, LAG-3-hFc protein (human LAG-3 extracellular region with hFc tag) (human, UniProt P18627 23-450).
T1 construct: also called hLAG-3-hFc; LAG-3 protein; not shown: human IgG Fc fragment (hFc) of the pCpC vector
T1 sequence: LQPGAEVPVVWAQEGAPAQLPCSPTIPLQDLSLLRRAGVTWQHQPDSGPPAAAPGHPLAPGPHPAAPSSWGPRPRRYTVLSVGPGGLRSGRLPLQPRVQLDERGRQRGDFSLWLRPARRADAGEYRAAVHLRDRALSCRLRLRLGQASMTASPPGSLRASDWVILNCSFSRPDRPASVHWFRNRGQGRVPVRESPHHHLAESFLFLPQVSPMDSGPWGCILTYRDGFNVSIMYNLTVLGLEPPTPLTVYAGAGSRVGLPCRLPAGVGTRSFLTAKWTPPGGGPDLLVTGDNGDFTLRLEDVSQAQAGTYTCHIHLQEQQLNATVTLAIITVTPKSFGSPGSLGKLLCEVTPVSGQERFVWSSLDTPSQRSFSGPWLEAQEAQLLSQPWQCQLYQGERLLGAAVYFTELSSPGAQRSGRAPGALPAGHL
The assay can be described thus: FACS, inhibition of LAG-3-hFc binding to MHC II on Raji cells, antibody 22.222 nM. The method, then: (§1) The FACS reaction plate incubating the Raji cells was centrifuged to discard the supernatant. The above mixture was added as 100 μl per well to Raji cells and incubated on ice for 1-2 hours. The plate was washed twice with blocking solution (PBS, 2% fetal bovine serum) by centrifugation, added with 100 microliters of fluorescent (Alexa 488)-labeled secondary antibodies per well, and incubated on ice for 1.0 hours. The plate was washed 2-3 times by centrifugation with blocking solution (PBS, 2% fetal bovine serum), added with 100 microliters of PBS per well to suspend cells, and detected using FACS (FACS Calibur, BD) and the results were analyzed. Wherein, the IgG control was murine IgG, and the data in the table is the inhibition rate (%).

Assay [2] addresses T2, human LAG-3 protein with hFc tag (hLAG-3-hFc protein) (human, UniProt P18627 23-450).
T2 construct: also called immunogen 1; LAG-3 extracellular domain protein; not shown: human IgG Fc fragment (hFc) of the pCpC vector
T2 sequence: T1 sequence
In words: FACS, blocks LAG-3-hFc binding to MHC II on Raji; 200.000 nM. Here is the method:
as §1

Assay [3] concerns the target T2, human LAG-3 protein with hFc tag …. The assay can be described thus: FACS, blocks LAG-3-hFc binding to MHC II on Raji; 0.000 nM. The method, then: as §1
(In general: In flow cytometry, cells or beads pass a laser one at a time.)

Assay [4] shares this target. The assay can be described thus: FACS, blocks LAG-3-hFc binding to MHC II on Raji; 22.222 nM. The method, then:
as §1

Assay [5] has as its target T3, human LAG-3 (full length, on the cell surface) (human, UniProt P18627 23-525).
T3 construct: Full-length human LAG-3 expressed on cells; also called HEK293-hLAG-3; HEK293 cells transfected with LAG-3 gene
T3 sequence: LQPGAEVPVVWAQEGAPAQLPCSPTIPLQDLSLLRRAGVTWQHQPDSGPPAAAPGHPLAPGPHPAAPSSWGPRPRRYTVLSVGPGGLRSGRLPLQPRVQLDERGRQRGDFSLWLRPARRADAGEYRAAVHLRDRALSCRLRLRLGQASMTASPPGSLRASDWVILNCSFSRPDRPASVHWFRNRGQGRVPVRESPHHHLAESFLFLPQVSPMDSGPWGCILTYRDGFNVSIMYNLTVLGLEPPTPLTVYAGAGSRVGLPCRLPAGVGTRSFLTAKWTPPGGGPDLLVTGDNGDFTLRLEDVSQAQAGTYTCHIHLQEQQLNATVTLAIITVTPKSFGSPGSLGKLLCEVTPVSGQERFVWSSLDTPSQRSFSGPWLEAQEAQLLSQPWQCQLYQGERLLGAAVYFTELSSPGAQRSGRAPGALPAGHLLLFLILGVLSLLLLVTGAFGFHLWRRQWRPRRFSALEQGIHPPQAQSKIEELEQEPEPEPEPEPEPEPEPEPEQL
In words: FACS, HEK293-hLAG-3; 8.000 nM. From the text: The pIRES plasmid with the monkey-derived full-length gene was transfected into the HEK293 cell line to construct a HEK293 stable cell line containing monkey LAG-3 (herein referred to as HEK293-cLAG-3 stable cell line). The HEK293-hLAG-3 stable cell line and HEK293-cLAG-3 stable cell line were expanded in a T-75 cell culture flask to a 90% confluence. The medium was aspirated, and the cells were washed with HBSS (Hanks' Balanced Salt Solution) 1-2 times, then treated with a enzyme-free cell dissociation fluid (Versene solution: Life technology) and the cells were collected. The cells were washed with HBSS buffer for 1-2 times. After counted, the cells were diluted with HBSS to 1-2×10⁶ cells per ml, added with 1% goat serum blocking solution, incubated on ice for 20-30 minutes, and then washed with HBSS for 2 times by centrifugation. The collected cells were suspended in the FACS buffer (HBSS+1% BSA) to 2×10⁶ cells/ml, added as 100 microliters per well to a 96-well FACS reaction plate, added with 100 microliters per well of the antibody sample to be tested, incubated on ice for 1-2 hours. The plate was washed twice with the FACS buffer by centrifugation, added with 100 microliters of fluorescent (Alexa 488)-labeled secondary antibodies per well, and incubated on ice for 0.5-1.0 hours. The plate was washed 2-3 times with FACS buffer by centrifugation, added with 100 μl fixative solution (4% Paraformaldehyde) per well to suspend the cells. 5-10 minutes later, it was washed 1-2 times with FACS buffer by centrifugation. The cells were suspended with 100 microliters of FACS buffer, FACS (FACSCalibur, BD) was used for detection and the results were analyzed.

B1: 556F6B8 mouse-human chimeric antibody (antibody, V domains shown)
VH: RVQLKQSGPGLVQPSQSLSITCTVSGFSLIKYGVHWVRQSPGEGLEWLGVIWRGGITDYNAAFMSRLSITKDNSKSQVFFKMNSLQADDTAIYYCAKWDGPLAMDYWGQGTSVTVSS
VL: DIVMTQSHKFLSTSVGDRVSITCKASQDVGTTVAWYQQKPGQSPKLLIYWASTRHTGVPDRFTGSGSGTDFTLTISNVQSEDLADYFCQQYSSYPYTFGGGTKLEIK
notes: also called mAb123-556F6B8; 556F8B8
Turning to B1, the “Inhibition rate (%)” value in assay [1] amounted to 95.8%.

B2: 556F6B8 (mouse antibody purified from hybridoma) (antibody, V domains shown)
VH: B1 VH
VL: B1 VL
notes: also called mAb123-556F6B8
On to B2, for which the “Inhibition rate (%)” value in assay [2] is 96%; in assay [3], -10.7%; in assay [4], 95.6%. For the same molecule, the Mean fluorescence intensity in assay [5] was 74.9 MFI.

B3: 405B8H3 (mouse antibody purified from hybridoma) (antibody, V domains shown)
VH: QVQLQQSGAELVRPGASVTLSCKASGYTFTDYEMHWVKQTPVHGLEWIGATDPETGNSAYNQKFKGKAIMTADKSSSTAYMELRSLTSEDSAVYYCISTGWNDWGQGTSLTVSS
VL: DIKMTQSPSSMYASLGERVTITCKASQDINSYLSWFQQKPGKSPKTLIYRADRLLDGVPSRFSGSGSGQDYSLTISSLEYGDMGIYYCLQYDEFPYTFGGGTKLEIK
notes: also called mAb103-405B8H3; 405B81-13
Turning to B3, the “Inhibition rate (%)” value in assay [2] was found to be 93.9%; in assay [3] it was 0.3%; in assay [4] it was 93.6%. This molecule also displayed a Mean fluorescence intensity in assay [5] of 252 MFI.

B4: 105F1E10 mouse-human chimeric antibody (antibody, V domains shown)
VH: EVQLQQSGPELVKPGASVKMSCRASGYTFTDFKMHWMKQSHGKSLEWIGYIAPNNGGTAYNQKFRGKATLTVNESSNTAYMELRSLTSEDSAVYYCVDWDDVDYWGQGTTLTVSS
VL: B3 VL with P40S, D52N, L55V, G81E, D92V, Y96L, G100A, I106L
notes: also called mAb009-105F1E10
For the molecule B4, the “Inhibition rate (%)” value in assay [1] came out at 95.8%.

B5: 405B8H3 mouse-human chimeric antibody (antibody, V domains shown)
VH: B3 VH
VL: B3 VL
notes: also called mAb103-405B8H3
As to B5, the “Inhibition rate (%)” value in assay [1] was found to be 95.7%.

B6: 105F1E10 (mouse antibody purified from hybridoma) (antibody, V domains shown)
VH: B4 VH
VL: B3 VL with P40S, D52N, L55V, G81E, D92V, Y96L, G100A, I106L
notes: also called mAb009-105F1E10
On to B6, for which the “Inhibition rate (%)” value is 93.1% in assay [2], -14% in assay [3] and 93.6% in assay [4]. In assay [5], this molecule showed a Mean fluorescence intensity of 235 MFI.

B7: 409B11E12 (mouse antibody purified from hybridoma) (antibody, V domains shown)
VH: B3 VH with P41T, G56S, N57Y, M70L, S98A
VL: B3 VL with I2L, D52N, G81E
notes: also called mAb104-409B11E12
Consider B7, for which the “Inhibition rate (%)” value in assay [2] is 95%; in assay [3], -21.2%; in assay [4], 95.3%. In assay [5], this molecule came in with a Mean fluorescence intensity of 112 MFI.

B8: 409D4E10 (mouse antibody purified from hybridoma) (antibody, V domains shown)
VH: B3 VH with Y27N, G56D, S58T, M70L, A72T, S98T, T99S
VL: B3 VL with D52N, G81E, D92N
notes: also called mAb112-409D4E10
For the molecule B8, the entries for the “Inhibition rate (%)” value in assay [2], in assay [3] and in assay [4] were 95.9%, -21.4% and 95.8%, respectively. Moreover, the Mean fluorescence intensity in assay [5] stood at 123 MFI.

B9: 409B11E12 mouse-human chimeric antibody (antibody, V domains shown)
VH: B3 VH with P41T, G56S, N57Y, M70L, S98A
VL: B3 VL with I2L, D52N, G81E
notes: also called mAb104-409B11E12
With B9, the “Inhibition rate (%)” value in assay [1] is 95.6%.

B10: 409D4E10 mouse-human chimeric antibody (antibody, V domains shown)
VH: B3 VH with Y27N, G56D, S58T, M70L, A72T, S98T, T99S
VL: B3 VL with D52N, G81E, D92N
notes: also called mAb112-409D4E10
As to B10, the “Inhibition rate (%)” value in assay [1] was 95.7%.
